Measured values from publication PMC5589196 (Cell, 2016).
Values belong to the binder of their own block, whether it stands above or below them.

B5: Tfg3 (natural protein, S. cerevisiae, UniProt P35189 1-244, looked up)
chain: MVATVKRTIRIKTQQHILPEVPPVENFPVRQWSIEIVLLDDEGKEIPATIFDKVIYHLHPTFANPNRTFTDPPFRIEEQGWGGFPLDISVFLLEKAGERKIPHDLNFLQESYEVEHVIQIPLNKPLLTEELAKSGSTEETTANTGTIGKRRTTTNTTAEPKAKRAKTGSASTVKGSVDLEKLAFGLTKLNEDDLVGVVQMVTDNKTPEMNVTNNVEEGEFIIDLYSLPEGLLKSLWDYVKKNTE

Experiments:
[1] = target: T1, Med5 (S. cerevisiae, UniProt P53114 1-1132); test: cross-linking
T1 sequence (looked up): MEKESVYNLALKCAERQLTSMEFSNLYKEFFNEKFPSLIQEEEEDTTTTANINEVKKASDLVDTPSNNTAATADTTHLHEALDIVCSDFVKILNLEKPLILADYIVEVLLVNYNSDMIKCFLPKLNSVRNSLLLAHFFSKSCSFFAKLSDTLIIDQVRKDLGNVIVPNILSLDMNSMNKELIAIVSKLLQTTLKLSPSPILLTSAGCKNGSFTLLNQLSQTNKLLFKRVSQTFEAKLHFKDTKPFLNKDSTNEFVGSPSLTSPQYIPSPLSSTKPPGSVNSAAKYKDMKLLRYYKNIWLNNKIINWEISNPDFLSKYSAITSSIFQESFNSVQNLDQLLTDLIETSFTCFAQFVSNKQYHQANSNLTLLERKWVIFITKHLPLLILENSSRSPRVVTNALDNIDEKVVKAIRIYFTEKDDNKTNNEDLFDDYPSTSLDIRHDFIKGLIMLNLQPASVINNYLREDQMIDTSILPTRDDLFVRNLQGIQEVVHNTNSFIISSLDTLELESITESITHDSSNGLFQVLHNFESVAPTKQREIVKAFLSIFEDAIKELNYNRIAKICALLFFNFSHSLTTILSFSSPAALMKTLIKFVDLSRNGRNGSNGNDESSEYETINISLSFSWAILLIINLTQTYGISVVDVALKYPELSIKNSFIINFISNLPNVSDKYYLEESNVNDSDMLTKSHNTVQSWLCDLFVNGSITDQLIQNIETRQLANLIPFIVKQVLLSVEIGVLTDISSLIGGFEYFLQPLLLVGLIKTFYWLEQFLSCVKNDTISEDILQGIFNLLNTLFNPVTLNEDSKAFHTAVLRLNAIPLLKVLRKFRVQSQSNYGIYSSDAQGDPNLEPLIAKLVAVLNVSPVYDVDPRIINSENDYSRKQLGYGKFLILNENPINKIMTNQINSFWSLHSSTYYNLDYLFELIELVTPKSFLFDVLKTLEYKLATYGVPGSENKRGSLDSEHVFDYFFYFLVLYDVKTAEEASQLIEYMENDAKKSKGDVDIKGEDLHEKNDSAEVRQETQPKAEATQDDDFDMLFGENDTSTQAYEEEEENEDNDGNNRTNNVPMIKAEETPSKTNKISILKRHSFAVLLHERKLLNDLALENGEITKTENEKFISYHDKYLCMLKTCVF

[2] = target: T2, Rad3 (S. cerevisiae, UniProt P06839 1-778); test: cross-linking
T2 sequence (looked up): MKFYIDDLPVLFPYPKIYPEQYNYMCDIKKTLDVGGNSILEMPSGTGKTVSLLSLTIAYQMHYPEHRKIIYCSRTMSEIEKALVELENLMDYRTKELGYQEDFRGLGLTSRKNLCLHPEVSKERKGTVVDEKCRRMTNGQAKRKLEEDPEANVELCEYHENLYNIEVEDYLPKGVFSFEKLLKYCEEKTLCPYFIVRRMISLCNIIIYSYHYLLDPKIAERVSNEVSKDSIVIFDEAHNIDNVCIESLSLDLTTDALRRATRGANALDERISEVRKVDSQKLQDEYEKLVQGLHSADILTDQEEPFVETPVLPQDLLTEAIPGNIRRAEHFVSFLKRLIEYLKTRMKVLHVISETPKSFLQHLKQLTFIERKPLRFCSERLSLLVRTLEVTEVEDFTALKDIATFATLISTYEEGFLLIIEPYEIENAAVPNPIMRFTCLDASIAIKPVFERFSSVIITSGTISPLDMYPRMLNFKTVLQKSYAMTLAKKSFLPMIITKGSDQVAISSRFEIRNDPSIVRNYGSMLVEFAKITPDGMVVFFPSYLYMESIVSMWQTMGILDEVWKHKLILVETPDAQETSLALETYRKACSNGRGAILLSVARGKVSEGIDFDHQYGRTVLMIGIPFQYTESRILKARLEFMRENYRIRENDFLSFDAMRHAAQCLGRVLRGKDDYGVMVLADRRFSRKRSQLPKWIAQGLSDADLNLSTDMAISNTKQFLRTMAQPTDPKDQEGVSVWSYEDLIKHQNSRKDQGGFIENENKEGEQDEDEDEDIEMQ

[3] = target: B5; test: cross-linking + cryo-EM structure
[4] = target: T3, TFIIF (S. cerevisiae, UniProt P41895 1-735; P41896 1-400; P35189 1-244); test: cross-linking
T3 sequence (looked up) 1: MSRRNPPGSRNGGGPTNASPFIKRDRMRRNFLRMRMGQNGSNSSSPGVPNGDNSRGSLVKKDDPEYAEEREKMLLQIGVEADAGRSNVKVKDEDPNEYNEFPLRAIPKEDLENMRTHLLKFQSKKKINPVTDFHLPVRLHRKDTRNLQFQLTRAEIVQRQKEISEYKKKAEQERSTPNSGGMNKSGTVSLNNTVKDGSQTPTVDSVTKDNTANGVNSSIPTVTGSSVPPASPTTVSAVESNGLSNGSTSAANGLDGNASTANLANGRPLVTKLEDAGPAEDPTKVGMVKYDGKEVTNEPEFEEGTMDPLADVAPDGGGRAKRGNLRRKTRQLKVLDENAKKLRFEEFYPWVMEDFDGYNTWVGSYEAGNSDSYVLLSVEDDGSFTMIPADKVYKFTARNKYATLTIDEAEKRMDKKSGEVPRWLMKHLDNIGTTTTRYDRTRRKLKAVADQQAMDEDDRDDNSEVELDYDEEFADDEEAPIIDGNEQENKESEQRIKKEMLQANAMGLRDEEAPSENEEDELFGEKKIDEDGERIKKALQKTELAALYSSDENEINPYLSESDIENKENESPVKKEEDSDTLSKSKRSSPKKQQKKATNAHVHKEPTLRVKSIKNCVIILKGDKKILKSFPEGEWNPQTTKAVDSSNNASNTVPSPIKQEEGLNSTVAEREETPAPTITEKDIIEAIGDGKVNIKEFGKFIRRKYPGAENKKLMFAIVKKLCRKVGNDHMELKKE
T3 sequence (looked up) 2: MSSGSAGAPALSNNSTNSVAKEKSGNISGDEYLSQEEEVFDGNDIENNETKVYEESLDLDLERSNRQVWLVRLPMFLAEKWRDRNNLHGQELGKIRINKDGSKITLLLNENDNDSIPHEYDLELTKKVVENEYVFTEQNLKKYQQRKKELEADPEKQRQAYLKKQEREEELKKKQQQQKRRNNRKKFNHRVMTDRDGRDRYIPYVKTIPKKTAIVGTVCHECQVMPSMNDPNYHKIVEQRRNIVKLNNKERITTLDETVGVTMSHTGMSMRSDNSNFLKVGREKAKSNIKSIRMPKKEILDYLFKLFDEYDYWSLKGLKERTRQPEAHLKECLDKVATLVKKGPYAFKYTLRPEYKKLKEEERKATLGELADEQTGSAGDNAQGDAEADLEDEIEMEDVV
T3 sequence (looked up) 3: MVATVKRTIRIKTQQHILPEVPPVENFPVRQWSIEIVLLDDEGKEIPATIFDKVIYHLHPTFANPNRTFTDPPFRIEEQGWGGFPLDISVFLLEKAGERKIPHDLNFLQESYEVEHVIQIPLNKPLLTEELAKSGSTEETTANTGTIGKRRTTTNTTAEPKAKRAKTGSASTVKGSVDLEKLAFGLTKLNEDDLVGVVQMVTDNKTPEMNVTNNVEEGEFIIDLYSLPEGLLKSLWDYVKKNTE

[5] = target: T4, Tfg1 (S. cerevisiae, UniProt P41895 1-735); test: cross-linking + cryo-EM structure
T4 sequence (looked up): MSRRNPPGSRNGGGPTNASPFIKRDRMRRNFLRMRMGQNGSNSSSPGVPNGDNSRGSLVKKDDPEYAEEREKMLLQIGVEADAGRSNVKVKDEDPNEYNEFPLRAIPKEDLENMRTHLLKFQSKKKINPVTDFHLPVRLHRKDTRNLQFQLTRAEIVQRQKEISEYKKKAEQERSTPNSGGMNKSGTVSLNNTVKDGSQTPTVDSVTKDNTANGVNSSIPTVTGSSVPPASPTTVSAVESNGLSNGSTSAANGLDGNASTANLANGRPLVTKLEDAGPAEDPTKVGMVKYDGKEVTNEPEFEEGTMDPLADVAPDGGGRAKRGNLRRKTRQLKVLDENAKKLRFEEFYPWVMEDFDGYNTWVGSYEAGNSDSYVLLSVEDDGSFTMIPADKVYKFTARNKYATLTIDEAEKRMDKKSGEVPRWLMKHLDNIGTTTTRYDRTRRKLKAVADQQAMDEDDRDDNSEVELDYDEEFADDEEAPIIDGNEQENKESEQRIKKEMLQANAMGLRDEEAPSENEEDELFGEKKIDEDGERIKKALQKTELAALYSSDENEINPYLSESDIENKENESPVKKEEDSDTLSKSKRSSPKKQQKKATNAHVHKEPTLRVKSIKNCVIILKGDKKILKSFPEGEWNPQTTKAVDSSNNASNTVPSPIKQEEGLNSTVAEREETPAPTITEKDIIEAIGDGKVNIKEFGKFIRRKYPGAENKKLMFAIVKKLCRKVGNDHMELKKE

- binding result [1]: binds
B1: Med1 (natural protein, S. cerevisiae, UniProt Q12321 1-566, looked up)
chain: MVEGDSYVETLDSMIELFKDYKPGSITLENITRLCQTLGLESFTEELSNELSRLSTASKIIVIDVDYNKKQDRIQDVKLVLASNFDNFDYFNQRDGEHEKSNILLNSLTKYPDLKAFHNNLKFLYLLDAYSHIESDSTSHNNGSSDKSLDSSNASFNNQGKLDLFKYFTELSHYIRQCFQDNCCDFKVRTNLNDKFGIYILTQGINGKEVPLAKIYLEENKSDSQYRFYEYIYSQETKSWINESAENFSNGISLVMEIVANAKESNYTDLIWFPEDFISPELIIDKVTCSSNSSSSPPIIDLFSNNNYNSRIQLMNDFTTKLINIKKFDISNDNLDLISEILKWVQWSRIVLQNVFKLVSTPSSNSNSSELEPDYQAPFSTSTKDKNSSTSNTEPIPRSNRHGSVVEASRRRRSSTNKSKRPSITEAMMLKEEGLQQFNLHEILSEPAIEEENGDSIKEHSTTMDGANDLGFTASVSNQENAGTDIVMEDHGVLQGTSQNYGTATADDADIEMKDVSSKPSKPESSVLQLIVSEDHIILDTISECNLYDDVKCWSKFIEKFQDIVS

- binding result [2]: binds
B2: Tfb3 (natural protein, S. cerevisiae, UniProt Q03290 1-321, looked up)
chain: MLMDEYEENKDMCPICKTDRYLSPDVKFLVNPECYHRICESCVDRIFSLGPAQCPYKGCDKILRKNKFKTQIFDDVEVEKEVDIRKRVFNVFNKTIDDFNGDLVEYNKYLEEVEDIIYKLDHGIDVAKTEEKLRTYEELNKQLIMNNLERSRTEIESFEQRQKFEKEMKLKKRLLERQIEEEERMNKEWTKKEIVNRLSTTTQDINETIEGVKNTVKLKKSSARRKLEELNRVLKNNPYFNSNVNVQNSRLKDAVPFTPFNGDREAHPRFTLKGSVYNDPFIKDLEHRKEFIASGFNTNYAYERVLTEAFMGLGCVISEEL

- binding result [3]: binds
B3: Rpb9 (natural protein, S. cerevisiae, UniProt P27999 1-122, looked up)
chain: MTTFRFCRDCNNMLYPREDKENNRLLFECRTCSYVEEAGSPLVYRHELITNIGETAGVVQDIGSDPTLPRSDRECPKCHSRENVFFQSQQRRKDTSMVLFFVCLSCSHIFTSDQKNKRTQFS

- binding result [4]: binds
B4: TFIIE (complex, S. cerevisiae)
chain 1: MDRPIDDIVKNLLKFVVRGFYGGSFVLVLDAILFHSVLAEDDLKQLLSINKTELGPLIARLRSDRLISIHKQREYPPNSKSVERVYYYVKYPHAIDAIKWKVHQVVQRLKDDLDKNSEPNGYMCPICLTKYTQLEAVQLLNFDRTEFLCSLCDEPLVEDDSGKKNKEKQDKLNRLMDQIQPIIDSLKKIDDSRIEENTFEIALARLIPPQNQSHAAYTYNPKKGSTMFRPGDSAPLPNLMGTALGNDSSRRAGANSQATLHINITTASDEVAQRELQERQAEEKRKQNAVPEWHKQSTIGKTALGRLDNEEEFDPVVTASAMDSINPDNEPAQETSYQNNRTLTEQEMEERENEKTLNDYYAALAKKQAKLNKEEEEEEEEEEDEEEEEEEEMEDVMDDNDETARENALEDEFEDVTDTAGTAKTESNTSNDVKQESINDKTEDAVNATATASGPSANAKPNDGDDDDDDDDDEMDIEFEDV
chain 2: MSKNRDPLLANLNAFKSKVKSAPVIAPAKVGQKKTNDTVITIDGNTRKRTASERAQENTLNSAKNPVLVDIKKEAGSNSSNAISLDDDDDDEDFGSSPSKKVRPGSIAAAALQANQTDISKSHDSSKLLWATEYIQKKGKPVLVNELLDYLSMKKDDKVIELLKKLDRIEFDPKKGTFKYLSTYDVHSPSELLKLLRSQVTFKGISCKDLKDGWPQCDETINQLEEDSKILVLRTKKDKTPRYVWYNSGGNLKCIDEEFVKMWENVQLPQFAELPRKLQDLGLKPASVDPATIKRQTKRVEVKKKRQRKGKITNTHMTGILKDYSHRV

Binder: B5
- binding result [5]: binds
